Data as given in article doi:10.1101/2024.03.13.584854 (bioRxiv, 2024).
Each block holds one binder with its values, some of them ahead of it.

Molecular target: T1, Saccharomyces cerevisiae Snf7 mutant (R52E) (Saccharomyces cerevisiae, UniProt P39929 1-240, R52E)
T1 sequence (looked up): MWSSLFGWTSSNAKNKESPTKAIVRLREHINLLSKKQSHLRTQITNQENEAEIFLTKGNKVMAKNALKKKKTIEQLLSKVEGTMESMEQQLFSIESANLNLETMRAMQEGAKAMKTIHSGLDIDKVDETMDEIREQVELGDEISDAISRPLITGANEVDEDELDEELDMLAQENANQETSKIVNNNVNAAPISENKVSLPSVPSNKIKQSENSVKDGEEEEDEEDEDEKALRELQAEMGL
Test: co-sedimentation

- binding result: binds
B1: Saccharomyces cerevisiae Vps2 (natural protein, UniProt P36108 1-232, looked up)
chain: MSLFEWVFGKNVTPQERLKKNQRALERTQRELEREKRKLELQDKKLVSEIKKSAKNGQVAAAKVQAKDLVRTRNYIQKFDNMKAQLQAISLRIQAVRSSDQMTRSMSEATGLLAGMNRTMNLPQLQRISMEFEKQSDLMGQRQEFMDEAIDNVMGDEVDEDEEADEIVNKVLDEIGVDLNSQLQSTPQNLVSNAPIAETAMGIPEPIGAGSEFHGNPDDDLQARLNTLKKQT

- binding result: binds
B2: Saccharomyces cerevisiae Vps24 (natural protein, UniProt P36095 1-224, looked up)
chain: MDYIKKAIWGPDPKEQQRRIRSVLRKNGRNIEKSLRELTVLQNKTQQLIKKSAKKNDVRTVRLYAKELYQINKQYDRMYTSRAQLDSVRMKIDEAIRMNTLSNQMADSAGLMREVNSLVRLPQLRNTMIELEKELMKSGIISEMVDDTMESVGDVGEEMDEAVDEEVNKIVEQYTNEKFKNVDQVPTVELAANEEEQEIPDEKVDEEADRMVNEMRERLRALQN
